Data published in the supplement of paper PMC10567573.

B1: EPB41L3 (parent)
chain: SDYISEFRFAPNHTKELEDKVIEL

Variants of: B1
Experiment: protein stability index of a GFP-peptide fusion (GPS, HEK-293T) (PSI 1-6); higher = more stable
Settings: c terminus: a fixed tail appended
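Also: lentivirally expressed fusions sorted by FACS into six bins by GFP to DsRed ratio, PSI derived from sequencing read proportions per bin multiplied by bin number.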

| Variant | protein stability index |
| --- | --- |
| SDYISEFRFAPNHTKELEDKTIEL | 2.18 |
| SDYISEFRFAPNHTKELEDKSIEL | 2.05 |
| SDYISEFRFAPNHTKELEDKHIEL | 1.85 |
| SDYISEFRFAPNHTKELEDKDIEL | 2.96 |
| SDYISEFRFAPNHTKELEDKRIEL | 1.78 |
| SDYISEFRFAPNHTKELEDKGIEL | 2.37 |
| SDYISEFRFAPNHTKELEDKYIEL | 2.14 |
| SDYISEFRFAPNHTKELEDKLIEL | 2.48 |
| SDYISEFRFAPNHTKELEDKKIEL | 2.15 |
| SDYISEFRFAPNHTKELEDKAIEL | 2.31 |
| SDYISEFRFAPNHTKELEDKQIEL | 1.99 |
| SDYISEFRFAPNHTKELEDKCIEL | 1.88 |
| SDYISEFRFAPNHTKELEDKPIEL | 1.94 |
| SDYISEFRFAPNHTKELEDKMIEL | 3.45 |
| SDYISEFRFAPNHTKELEDKFIEL | 3.22 |
| SDYISEFRFAPNHTKELEDKIIEL | 2.22 |
| SDYISEFRFAPNHTKELEDKNIEL | 2.38 |
| SDYISEFRFAPNHTKELEDKWIEL | 2.14 |
| SDYISEFRFAPNHTKELEDKEIEL | 2.54 |
| SDYISEFRFAPNSTKELEDKVIEL | 2.06 |
| SDYISEFRFAPNKTKELEDKVIEL | 2.29 |
| SDYISEFRFAPNMTKELEDKVIEL | 2.06 |
| SDYISEFRFAPNPTKELEDKVIEL | 1.99 |
| SDYISEFRFAPNTTKELEDKVIEL | 2.08 |

| Variant | protein stability index |
| --- | --- |
| SDYISEFRFAPNQTKELEDKVIEL | 2.46 |
| SDYISEFRFAPNNTKELEDKVIEL | 2.36 |
| SDYISEFRFAPNLTKELEDKVIEL | 2.31 |
| SDYISEFRFAPNRTKELEDKVIEL | 1.94 |
| SDYISEFRFAPNITKELEDKVIEL | 2.28 |
| SDYISEFRFAPNWTKELEDKVIEL | 1.72 |
| SDYISEFRFAPNYTKELEDKVIEL | 2.35 |
| SDYISEFRFAPNVTKELEDKVIEL | 1.59 |
| SDYISEFRFAPNHLKELEDKVIEL | 2.23 |
| SDYISEFRFAPNHMKELEDKVIEL | 2.65 |
| SDYISEFRFAPNHYKELEDKVIEL | 2.06 |
| SDYISEFRFAPNHAKELEDKVIEL | 2.16 |
| SDYISEFRFAPNHVKELEDKVIEL | 2.42 |
| SDYISEFRFAPNHDKELEDKVIEL | 2.49 |
| SDYISEFRFAPNHPKELEDKVIEL | 1.37 |
| SDYISEFRFAPNHNKELEDKVIEL | 2.25 |
| SDYISEFRFAPNHWKELEDKVIEL | 2.18 |
| SDYISEFRFAPNHCKELEDKVIEL | 2.02 |
| SDYISEFRFAPNHFKELEDKVIEL | 1.97 |
| SDYISEFRFAPNHSKELEDKVIEL | 1.76 |
| SDYISEFRFAPNHGKELEDKVIEL | 1.88 |
| SDYISEFRFAPNHQKELEDKVIEL | 2.55 |
| SDYISEFRFAPNHHKELEDKVIEL | 1.68 |
| SDYISEFRFAPNHRKELEDKVIEL | 2.08 |

| Variant | protein stability index |
| --- | --- |
| SDYISEFRFAPNHEKELEDKVIEL | 2.74 |
| SDYISEFRFAPNHKKELEDKVIEL | 1.4 |
| SDYISEFRFAPNHIKELEDKVIEL | 2.7 |
| SDYISEFRFAPNHTKEWEDKVIEL | 1.77 |
| SDYISEFRFAPNHTKEMEDKVIEL | 2.47 |
| SDYISEFRFAPNHTKETEDKVIEL | 1.98 |
| SDYISEFRFAPNHTKEFEDKVIEL | 2.86 |
| SDYISEFRFAPNHTKESEDKVIEL | 1.84 |
| SDYISEFRFAPNHTKEEEDKVIEL | 2.32 |
| SDYISEFRFAPNHTKEKEDKVIEL | 2.07 |
| SDYISEFRFAPNHTKEDEDKVIEL | 2.51 |
| SDYISEFRFAPNHTKEPEDKVIEL | 1.96 |
| SDYISEFRFAPNHTKEHEDKVIEL | 1.84 |
| SDYISEFRFAPNHTKEGEDKVIEL | 1.97 |
| SDYISEFRFAPNHTKEAEDKVIEL | 1.87 |
| SDYISEFRFAPNHTKEYEDKVIEL | 2.59 |
| SDYISEFRFAPNHTKEVEDKVIEL | 2.68 |
| SDYISEFRFAPNHTKECEDKVIEL | 2.05 |
| SDYISEFRFAPNHTKEIEDKVIEL | 2.37 |
| SDYISEFRFAPNHTKEREDKVIEL | 1.27 |
| SDYISEFRFAPNHTKENEDKVIEL | 2.17 |
| SDYISEFRFAPNHTKEQEDKVIEL | 2.18 |
| SDYISEFRFAPNHTKRLEDKVIEL | 2.66 |
| SDYISEFRFAPNHTKMLEDKVIEL | 3.24 |

| Variant | protein stability index |
| --- | --- |
| SDYISEFRFAPNHTKWLEDKVIEL | 2.07 |
| SDYISEFRFAPNHTKCLEDKVIEL | 2.17 |
| SDYISEFRFAPNHTKHLEDKVIEL | 2.65 |
| SDYISEFRFAPNHTKILEDKVIEL | 2.08 |
| SDYISEFRFAPNHTKGLEDKVIEL | 1.81 |
| SDYISEFRFAPNHTKLLEDKVIEL | 2.37 |
| SDYISEFRFAPNHTKFLEDKVIEL | 2.81 |
| SDYISEFRFAPNHTKYLEDKVIEL | 2.56 |
| SDYISEFRFAPNHTKNLEDKVIEL | 1.76 |
| SDYISEFRFAPNHTKTLEDKVIEL | 1.54 |
| SDYISEFRFAPNHTKALEDKVIEL | 2.56 |
| SDYISEFRFAPNHTKPLEDKVIEL | 1.57 |
| SDYISEFRFAPNHTKQLEDKVIEL | 2.3 |
| SDYISEFRFAPNHTKSLEDKVIEL | 2.42 |
| SDYISEFRFAPNHTKDLEDKVIEL | 1.82 |
| SDYISEFRFAPNHTKVLEDKVIEL | 1.89 |
| SDYISEFRFAPNHTKKLEDKVIEL | 1.77 |
| SDYISEFRFAPNHTKELEDAVIEL | 2.4 |
| SDYISEFRFAPNHTKELEDCVIEL | 2.13 |
| SDYISEFRFAPNHTKELEDTVIEL | 1.68 |
| SDYISEFRFAPNHTKELEDRVIEL | 1.83 |
| SDYISEFRFAPNHTKELEDVVIEL | 2.02 |
